Measured values from PMC4018787 (The Journal of Cell Biology, 2014).

Legend:
[1] = target: T1, recombinant fibrinogen-like (FBG) domain of tenascin-X (TNX), produced in mammalian cells (UniProt O18977 3911-4135); experiment: ELISA
T1 sequence (looked up): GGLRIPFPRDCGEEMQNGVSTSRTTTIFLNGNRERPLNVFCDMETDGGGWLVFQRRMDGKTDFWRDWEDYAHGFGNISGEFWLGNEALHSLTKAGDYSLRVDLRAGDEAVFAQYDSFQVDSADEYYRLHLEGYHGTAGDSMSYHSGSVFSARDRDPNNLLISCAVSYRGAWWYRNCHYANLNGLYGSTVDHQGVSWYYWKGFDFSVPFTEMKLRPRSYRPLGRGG

[2] = target: recombinant full-length tenascin-X (TNX) (UniProt O18977 23-4135); experiment: ELISA

- binding result [1]: binds
- binding result [2]: binds
B1: inserted (I) domain of the α11 integrin chain fused to GST (domain or fragment, human, UniProt Q9UKX5-1 160-358, looked up)
chain: QTYMDIVIVLDGSNSIYPWVEVQHFLINILKKFYIGPGQIQVGVVQYGEDVVHEFHLNDYRSVKDVVEAASHIEQRGGTETRTAFGIEFARSEAFQKGGRKGAKKVMIVITDGESHDSPDLEKVIQQSERDNVTRYAVAVLGYYNRRGINPETFLNEIKYIASDPDDKHFFNVTDEAALKDIVDALGDRIFSLEGTNKN
